Source: patent publication US20090291088A1, “THERAPEUTIC COMBINATIONS OF ANTI-IGF-1R ANTIBODIES AND OTHER COMPOUNDS” (Biogen Idec MA Inc., priority 2008, published 2009)

B1: 20C8.3B8: murine anti-human IGF-1R monoclonal antibody from hybridoma; VH SEQ ID NO:43, VL SEQ ID NO:103 (antibody, V domains shown)
VH: DVQLQESGPDLVKPSQSLSLTCTVTGYSITSGYSWHWIRQFPGNKLEWMGYIHYSGGTNYNPSLKSRISITRDTSKNQFFLQLNSVTTEDTATYYCARSGYGYRSAYYFDYWGQGTTVTVSS
VL: DIVLTQSPASLAVSLGQRATISCRASKSVSTSAYSYMHWYQQKPGQPPKLLIYLASNLESGVPARFSGSGSGTDFTLNIHPVEEEDAATYYCQHSRELPYTFGGGTKLEIK
modifications: Antibody variable heavy chain sequence; Antibody variable light chain sequence
B2: 20D8.24B11: murine anti-human IGF-1R monoclonal antibody from hybridoma; VH SEQ ID NO:53, VL SEQ ID NO:103 (antibody, V domains shown)
VH: DVQLQESGPDLVKPSQSLSLTCTVTGYSITSGYSWHWIRQFPGNKLEWMGYIHYSGGTNYNPSLKSRISITRDTSKNQFFLQLNSVTTEDTATYYCARSGYGYRSAYYFDYWGQGTTLTVSS
VL: DIVLTQSPASLAVSLGQRATISCRASKSVSTSAYSYMHWYQQKPGQPPKLLIYLASNLESGVPARFSGSGSGTDFTLNIHPVEEEDAATYYCQHSRELPYTFGGGTKLEIK
modifications: Antibody variable heavy chain sequence; Antibody variable light chain sequence
B3: M14-C03: anti-IGF-1R antibody, allosteric blocker of IGF-1 and IGF-2 (antibody, V domains shown)
VH: EVQLLESGGGLVQPGGSLRLSCAASGFTFSKYMMSWVRQAPGKGLEWVSYISPSGGLTWYADSVKGRFTISRDNSKNTLYLQMNSLRAEDTAVYYCARDGARGYGMDVWGQGTTVTVSS
VL: DIQMTQSPATLSLSPGERATLSCRASQSVSSYLAWYQQKPGQAPRLLIYDASNRATGIPARFSGSGSGTDFTLTISSLEPEDFAVYYCQQRSNWPPEVTFGPGTKVDIK
modifications: Antibody variable heavy chain sequence; Antibody variable light chain sequence
B4: Fab M12-E01: human anti-human IGF-1R Fab from phage display library; VH SEQ ID NO:4, VL SEQ ID NO:68 (antibody, V domains shown)
VH: EVQLLESGGGLVQPGGSLRLSCAASGFTFSPYSMLWVRQAPGKGLEWVSSIGSSGGSTRYADSVKGRFTISRDNSKNTLYLQMNSLRAEDTAMYYCARVRGILHYDILIGRNLYYYYMDVWGKGTTVTVSS
VL: QYELTQPPSVSEAPRQRVTISCSGSSSNIGNNAINWYQQLPGKPPKLLIYYDDLLPSGVSDRFSGSKSGTSGSLAISGLQSEDEADYYCAAWDDNLNGVIFGGGTKLTVL
modifications: Antibody variable heavy chain sequence; Antibody variable light chain sequence

Experiments:
[1] = target: T1, IGF-1R (Homo sapiens, UniProt P08069); assay: Ligand blocking assay (RIA): 125I-IGF-1 / 125I-IGF-2 binding to immobilized IGF-1R
T1 construct: human IGF-1R(1-903)-Fc (denoted hIGF-1R-Fc, generated by Biogen Idec)
Source text: Ligand blocking assay (RIA). […] Insulin (Arg-Insulin, Cat #01-207) was purchased from Upstate Cell Signaling Solutions (Lake Placid, N.Y. (now part of Millipore, Concord, Mass. (USA)). ^125I-rhIGF-1 (Cat # IM172), ^125I-rhIGF-2 (Cat# IM238) and ^125I-rhInsulin (Cat# IM166) were purchased from Amersham Biosciences (Piscataway, N.J.). AffiPure goat anti-human IgG, Fcγ fragment specific antibodies (Cat #109-005-098, Jackson ImmunoResearch, West Grove, Pa.) was used for IGF-1R-Fc capture. As detection antibody, goat anti-mouse IgG HRP (Cat #1030-05, Southern Biotech Birmingham, Ala.) was used.
Human insulin receptor α-subunit specific antibodies, Clone 83-14, (Cat #AHR0221, Biosource International, Inc., Camarillo, Calif.) and the 47-9 (Cat #E55502M, Biodesign International, Saco, M E) were used as positive controls blocking of insulin-insulin receptor binding experiments. Recombinant IGF-1R-Fc fusion protein was produced at Biogen Idec (Cambridge, Mass.).
As isotype matched mouse negative control antibodies, 2B8 (murine α-CD20.1gG,) and 2B8 mkm.G2a (murine α-CD20 MAb, IgG2a, Biogen Idec, Lot #NB3304-87, San Diego, Calif.) were used. The negative control for Fabs was R001-1B provided by Christilyn Graff (Biogen Idec, Cambridge, Mass.). PBS used in buffers was from BioWhittaker (Cat. # 17-513F, Walkersville, Md.).
Recombinant human IGF-1R (Histidine tagged version) or IGF-1R-Fc was coated onto IMMULON2 HB (high binding) Removawell strips (Dynex Technologies, Inc., cat. #6302) diluted with carbonate coating buffer pH 9.5 to a concentration of 250 ng/well. After overnight incubation at 4° C., the wells were washed three times with washing buffer (0.05% Tween 20/PBS) then blocked with blocking buffer (3% BSA/PBS) for one hour at room temperature. The blocking buffer was removed and the wells washed three more times. Antibody, Fab, or ligand preparations were diluted to desired concentration with dilution buffer (1% BSA/0.05% Tween 20/PBS) and plated at 50 μl per well in duplicate. After 45 minutes at room temperature, 100,000 cpm of either [125I] rhIGF-1 or [125I] rhIGF-2 in 50 μl dilution buffer was added per well. This was incubated at room temperature for one more hour. The wells were washed again three more times and left liquid free after the last wash. The air-dried wells were counted with the Isodata Gamma Counter.
Alternatively, Fabs were evaluated by a modified capture assay, where the IGF-1R-Fc was captured using anti-human IgG immobilized to a plate. Immobilization was carried out by overnight incubation of goat anti-human IgG, Fcγ fragment specific antibody (200 ng/well) in carbonate coating buffer. The wells were washed, blocked and 250 ng of IGF-1R-Fc was added per well.
The ligand blocking ability of the anti-IGF-1R antibody was determined by a solid phase RIA capture method as described in Example 3. […] After 1 hour of incubation at room temperature, the wells were washed and counted for bound radioactivity by a Gamma Counter. An isotype matched negative antibody control, IDEC-151 (human G4), was used. Percent (%) inhibition was calculated as =[1−(Ave.CPM with Ab)/(Ave.CPM with buffer)]×100%.

[2] = test system: Panc-1; assay: IGF driven tumor cell growth, CELL TITER-GLO, Panc-1; assay type: cell-based, human; conditions: pancreatic cancer cell
Procedure: (§1) NCI-H23, Calu-6, Colo-205, Panc-1, BxPC-3 (ATCC) tumor lines were purchased from ATCC. Cell lines were grown in complete growth medium containing RPMI-1640 (ATCC), 10% fetal bovine serum (Irvine Scientific Inc.) and 50 μg/ml of Gentamycin (Gibco, Invitrogen). Trypsin-EDTA solution (Sigma) was used for removal of adherent cells from culture vessels. Phosphate buffered saline, pH 7.2, was from MediaTech Inc The 96-well clear bottom plates for luminescent assay was purchased from Wallac Inc.
(§2) Cells grown to 80% monolayers were, trypsinized, washed, resuspended and plated into 96-well plates in 200 μl of 2% growth medium at 8×10^3 cells/well for NCI-H23 and Colo-205 cells; and 5×10^3 cells/well for Calu-6, Panc-1 and BxPC-3 cells. After 24 hours, the culture medium was replaced with 100 μl of serum free medium (SFM), and 50 μl of serially diluted antibodies at 4× concentration was added. […] All treatments were done in triplicates. Cell growth was measured using the CELL TITER-GLO™ Luminescent Cell Viability Assay (Promega, Madison, Wis.). The 1:1 mixture of reagent and SFM was added at 200 μl/well. Luminescence was detected on Wallac (Boston, Mass.) plate reader.
(§3) The ability of the selected murine antibodies to inhibit IGF/IGF-1R dependent in vitro growth of several human tumor lines (Lung, H-23, Calu-6; Pancreas, BxPc-3, Panc-1, MiaPaCa and Colon Colo205) was measured by a proliferation assay described in Example 13.

[3] = test system: Colo-205; assay: IGF driven tumor cell growth, CELL TITER-GLO, Colo-205; assay type: cell-based, human; conditions: colon cancer cell
Procedure: as §1, §2, §3

[4] = test system: NCI-H23; assay: IGF driven tumor cell growth, CELL TITER-GLO, H-23; assay type: cell-based, human; conditions: for Proliferation of Tumor Cells H-23: lung cancer cells
Procedure: as §1, §2, §3
A commercially available anti-IGF-1R antibody (IR3) was used as a positive control. The mouse IgG (anti-IDectin, IgG1) and human gamma 4 version of IDEC-152 antibody of irrelevant specificity were used as isotype matched controls for the experiments. […]

| Molecule | IGF Blocking IGF-1 ([1]; murine monoclonal antibodies) | IGF Blocking IGF-2 ([1]; murine monoclonal antibodies) | Proliferation of Tumor Cells Panc-1 [2] | Proliferation of Tumor Cells Colo-205 [3] | inhibition of IGF-1 and IGF-2 driven cell proliferation in H-23 ([4]; NCI-H23 lung tumor cell line) | Proliferation of Tumor Cells H-23 [4] | IGF Blocking IGF-2 ([1]; Fabs, 125I-IGF-2) |
| --- | --- | --- | --- | --- | --- | --- | --- |
| B1 | +++ (>40%@0.1 μg/ml) | +++ (>40%@0.1 μg/ml) | +++ (>30%@0.1 μg/ml) | +++ (>30%@0.1 μg/ml) | showed inhibition | +++ (>30%@0.1 μg/ml) | – |
| B2 | +++ (>40%@0.1 μg/ml) | +++ (>40%@0.1 μg/ml) | +++ (>30%@0.1 μg/ml) | +++ (>30%@0.1 μg/ml) | – | ++++ (>30%@0.01 μg/ml) | – |
| B3 | – | – | – | – | – | – | + (>30%@10ug/ml) |
| B4 | – | – | – | – | – | – | ++ (>30%@1ug/ml) |
